± gives the standard error. Variants at the floor of the assay were thinned out.
B1: glmS ribozyme (parent)
chain: AUAAAAGCGCCAGAACUACAGAAAUGUAGUUGACGAGGAGGAGGUUUAUCGAAUUUUCGGCGGAUGCCUCCAAA

Columns and labels:
Settings in all cases: with glucosamine-6-phosphate
glucosamine-6-phosphate [1] = variants of: B1; test: self-cleavage kobs at 640 uM GlcN6P; higher = faster cleavage; RNA array
Outline: (§1)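 Tracking of barcoded ribozyme variants used a hybridised Cy3 probe at 37 °C, after in situ transcription by E. coli RNA polymerase on sequenced MiSeq chips. The flowed solution held 40 μM to 10 mM glucosamine-6-phosphate in HEPES/KCl/Mg(OAc)2 buffer, and imaging ran over ~14 h. kobs was taken from exponential decay fits of normalised per-tile medians, and kcat and KM from weighted Michaelis–Menten fits.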

glucosamine-6-phosphate [2] = variants of: B1; test: self-cleavage kobs at 2500 uM GlcN6P; higher = faster cleavage; RNA array
Outline: as §1

glucosamine-6-phosphate [3] = variants of: B1; test: self-cleavage kobs at 10000 uM GlcN6P; higher = faster cleavage; RNA array
Outline: as §1

## A39C G59C C68U
glucosamine-6-phosphate [1]
  self-cleavage kobs at 640 uM GlcN6P: < 1e-05 s⁻¹

## G41U G44U U45C
glucosamine-6-phosphate [1]
  self-cleavage kobs at 640 uM GlcN6P: < 1e-05 s⁻¹
glucosamine-6-phosphate [2]
  self-cleavage kobs at 2500 uM GlcN6P: < 1e-05 s⁻¹

## A42C A53C G60A
glucosamine-6-phosphate [1]
  self-cleavage kobs at 640 uM GlcN6P: < 1e-05 s⁻¹
glucosamine-6-phosphate [2]
  self-cleavage kobs at 2500 uM GlcN6P: < 1e-05 s⁻¹

## U45G C50U C70U
glucosamine-6-phosphate [1]
  self-cleavage kobs at 640 uM GlcN6P: < 1e-05 s⁻¹

## A42U C50G G62A C71U
glucosamine-6-phosphate [1]
  self-cleavage kobs at 640 uM GlcN6P: < 1e-05 s⁻¹
glucosamine-6-phosphate [2]
  self-cleavage kobs at 2500 uM GlcN6P: < 1e-05 s⁻¹

## G41C U45C C50U
glucosamine-6-phosphate [1]
  self-cleavage kobs at 640 uM GlcN6P: < 1e-05 s⁻¹
glucosamine-6-phosphate [2]
  self-cleavage kobs at 2500 uM GlcN6P: < 1e-05 s⁻¹

## G43U C67G C70A
glucosamine-6-phosphate [1]
  self-cleavage kobs at 640 uM GlcN6P: < 1e-05 s⁻¹

## A36U A48C C67G
glucosamine-6-phosphate [1]
  self-cleavage kobs at 640 uM GlcN6P: < 1e-05 s⁻¹
glucosamine-6-phosphate [2]
  self-cleavage kobs at 2500 uM GlcN6P: < 1e-05 s⁻¹

## G44U U47C A48C U69G
glucosamine-6-phosphate [1]
  self-cleavage kobs at 640 uM GlcN6P: < 1e-05 s⁻¹
glucosamine-6-phosphate [2]
  self-cleavage kobs at 2500 uM GlcN6P: < 1e-05 s⁻¹

## A39U G63C C71G
glucosamine-6-phosphate [1]
  self-cleavage kobs at 640 uM GlcN6P: < 1e-05 s⁻¹
glucosamine-6-phosphate [2]
  self-cleavage kobs at 2500 uM GlcN6P: < 1e-05 s⁻¹

## G35C C67G C71G
glucosamine-6-phosphate [1]
  self-cleavage kobs at 640 uM GlcN6P: < 1e-05 s⁻¹

## U47A U54G C68G
glucosamine-6-phosphate [1]
  self-cleavage kobs at 640 uM GlcN6P: 6.48e-05 ± 1.2e-05 s⁻¹
glucosamine-6-phosphate [2]
  self-cleavage kobs at 2500 uM GlcN6P: 6.96e-05 ± 1.8e-05 s⁻¹

## G35C G38A
glucosamine-6-phosphate [1]
  self-cleavage kobs at 640 uM GlcN6P: < 1e-05 s⁻¹
glucosamine-6-phosphate [2]
  self-cleavage kobs at 2500 uM GlcN6P: < 1e-05 s⁻¹

## A39U A53C U55C
glucosamine-6-phosphate [1]
  self-cleavage kobs at 640 uM GlcN6P: 0.000547 ± 9.5e-05 s⁻¹
glucosamine-6-phosphate [2]
  self-cleavage kobs at 2500 uM GlcN6P: 0.00232 ± 0.00029 s⁻¹

## A39C C58G C67G C71G
glucosamine-6-phosphate [1]
  self-cleavage kobs at 640 uM GlcN6P: < 1e-05 s⁻¹

## A42U U46G A48C
glucosamine-6-phosphate [1]
  self-cleavage kobs at 640 uM GlcN6P: < 1e-05 s⁻¹

## G43U U47C G66U
glucosamine-6-phosphate [1]
  self-cleavage kobs at 640 uM GlcN6P: < 1e-05 s⁻¹

## U49A U55C C71G
glucosamine-6-phosphate [1]
  self-cleavage kobs at 640 uM GlcN6P: < 1e-05 s⁻¹

## G38U G43C A53U
glucosamine-6-phosphate [1]
  self-cleavage kobs at 640 uM GlcN6P: < 1e-05 s⁻¹
glucosamine-6-phosphate [2]
  self-cleavage kobs at 2500 uM GlcN6P: < 1e-05 s⁻¹

## G44A C61A C71U
glucosamine-6-phosphate [1]
  self-cleavage kobs at 640 uM GlcN6P: < 1e-05 s⁻¹
glucosamine-6-phosphate [2]
  self-cleavage kobs at 2500 uM GlcN6P: < 1e-05 s⁻¹

## G35C G59U C61A
glucosamine-6-phosphate [1]
  self-cleavage kobs at 640 uM GlcN6P: < 1e-05 s⁻¹

## A42C A64U U69G
glucosamine-6-phosphate [1]
  self-cleavage kobs at 640 uM GlcN6P: 4.76e-05 ± 1.2e-05 s⁻¹
glucosamine-6-phosphate [2]
  self-cleavage kobs at 2500 uM GlcN6P: 9.13e-05 ± 1.9e-05 s⁻¹

## U49G C61U C71A
glucosamine-6-phosphate [1]
  self-cleavage kobs at 640 uM GlcN6P: < 1e-05 s⁻¹
glucosamine-6-phosphate [2]
  self-cleavage kobs at 2500 uM GlcN6P: < 1e-05 s⁻¹
glucosamine-6-phosphate [3]
  self-cleavage kobs at 10000 uM GlcN6P: < 1e-05 s⁻¹

## A36U C61G C70A
glucosamine-6-phosphate [1]
  self-cleavage kobs at 640 uM GlcN6P: 0.000101 ± 3e-05 s⁻¹

## G40U G59C C71U
glucosamine-6-phosphate [1]
  self-cleavage kobs at 640 uM GlcN6P: < 1e-05 s⁻¹
glucosamine-6-phosphate [2]
  self-cleavage kobs at 2500 uM GlcN6P: < 1e-05 s⁻¹

## G51C A52C G60A
glucosamine-6-phosphate [1]
  self-cleavage kobs at 640 uM GlcN6P: < 1e-05 s⁻¹

## A36C G63A G66A
glucosamine-6-phosphate [1]
  self-cleavage kobs at 640 uM GlcN6P: < 1e-05 s⁻¹

## A48U C58U A64C
glucosamine-6-phosphate [1]
  self-cleavage kobs at 640 uM GlcN6P: < 1e-05 s⁻¹
glucosamine-6-phosphate [2]
  self-cleavage kobs at 2500 uM GlcN6P: < 1e-05 s⁻¹

## G41A G44U C70A
glucosamine-6-phosphate [1]
  self-cleavage kobs at 640 uM GlcN6P: < 1e-05 s⁻¹

## U47G A48G G63A
glucosamine-6-phosphate [1]
  self-cleavage kobs at 640 uM GlcN6P: < 1e-05 s⁻¹

## C34U G38U G43C
glucosamine-6-phosphate [1]
  self-cleavage kobs at 640 uM GlcN6P: < 1e-05 s⁻¹

## A42C G43C C70U
glucosamine-6-phosphate [1]
  self-cleavage kobs at 640 uM GlcN6P: < 1e-05 s⁻¹

## A36U U56A
glucosamine-6-phosphate [1]
  self-cleavage kobs at 640 uM GlcN6P: < 1e-05 s⁻¹
glucosamine-6-phosphate [3]
  self-cleavage kobs at 10000 uM GlcN6P: < 1e-05 s⁻¹

## G37C G62U C68U
glucosamine-6-phosphate [1]
  self-cleavage kobs at 640 uM GlcN6P: < 1e-05 s⁻¹
glucosamine-6-phosphate [2]
  self-cleavage kobs at 2500 uM GlcN6P: < 1e-05 s⁻¹

## U46G A53U G63C C67G
glucosamine-6-phosphate [1]
  self-cleavage kobs at 640 uM GlcN6P: < 1e-05 s⁻¹

## G35U G40C U49C G51A
glucosamine-6-phosphate [1]
  self-cleavage kobs at 640 uM GlcN6P: < 1e-05 s⁻¹

## G40U G44A C50G C71G
glucosamine-6-phosphate [1]
  self-cleavage kobs at 640 uM GlcN6P: < 1e-05 s⁻¹
glucosamine-6-phosphate [2]
  self-cleavage kobs at 2500 uM GlcN6P: < 1e-05 s⁻¹

## U46G C50A C67G
glucosamine-6-phosphate [1]
  self-cleavage kobs at 640 uM GlcN6P: 0.000631 ± 0.00012 s⁻¹
glucosamine-6-phosphate [2]
  self-cleavage kobs at 2500 uM GlcN6P: 0.000506 ± 0.00017 s⁻¹

## G40C U65C
glucosamine-6-phosphate [1]
  self-cleavage kobs at 640 uM GlcN6P: 4.51e-05 ± 1.9e-05 s⁻¹
glucosamine-6-phosphate [3]
  self-cleavage kobs at 10000 uM GlcN6P: 0.000172 ± 3.4e-05 s⁻¹

## C34U G43C
glucosamine-6-phosphate [1]
  self-cleavage kobs at 640 uM GlcN6P: < 1e-05 s⁻¹

## G37A G41C C50U U65G
glucosamine-6-phosphate [1]
  self-cleavage kobs at 640 uM GlcN6P: < 1e-05 s⁻¹
glucosamine-6-phosphate [2]
  self-cleavage kobs at 2500 uM GlcN6P: < 1e-05 s⁻¹

## A36U A39U U45C C58U
glucosamine-6-phosphate [1]
  self-cleavage kobs at 640 uM GlcN6P: < 1e-05 s⁻¹
glucosamine-6-phosphate [2]
  self-cleavage kobs at 2500 uM GlcN6P: < 1e-05 s⁻¹

## G37A G63U A64C
glucosamine-6-phosphate [1]
  self-cleavage kobs at 640 uM GlcN6P: < 1e-05 s⁻¹
glucosamine-6-phosphate [3]
  self-cleavage kobs at 10000 uM GlcN6P: < 1e-05 s⁻¹

## G37U C58U U69A
glucosamine-6-phosphate [1]
  self-cleavage kobs at 640 uM GlcN6P: 5.7e-05 ± 1.7e-05 s⁻¹

## G44U U46A A53U C70G
glucosamine-6-phosphate [1]
  self-cleavage kobs at 640 uM GlcN6P: < 1e-05 s⁻¹

## G38C U45C C70A
glucosamine-6-phosphate [1]
  self-cleavage kobs at 640 uM GlcN6P: < 1e-05 s⁻¹
glucosamine-6-phosphate [2]
  self-cleavage kobs at 2500 uM GlcN6P: < 1e-05 s⁻¹

## C34U G43U G59A G62C C67A
glucosamine-6-phosphate [1]
  self-cleavage kobs at 640 uM GlcN6P: < 1e-05 s⁻¹
glucosamine-6-phosphate [2]
  self-cleavage kobs at 2500 uM GlcN6P: < 1e-05 s⁻¹

## G40U U54C
glucosamine-6-phosphate [1]
  self-cleavage kobs at 640 uM GlcN6P: 0.000738 ± 0.00016 s⁻¹
glucosamine-6-phosphate [2]
  self-cleavage kobs at 2500 uM GlcN6P: 0.00431 ± 0.0006 s⁻¹

## U45A U46C U47G C70U
glucosamine-6-phosphate [1]
  self-cleavage kobs at 640 uM GlcN6P: 0.000175 ± 8.3e-05 s⁻¹

## C50G U57A A64U
glucosamine-6-phosphate [1]
  self-cleavage kobs at 640 uM GlcN6P: 0.000127 ± 5.8e-05 s⁻¹

## G38A G59C G62U
glucosamine-6-phosphate [1]
  self-cleavage kobs at 640 uM GlcN6P: < 1e-05 s⁻¹

## A52C A53G A64U
glucosamine-6-phosphate [1]
  self-cleavage kobs at 640 uM GlcN6P: < 1e-05 s⁻¹
glucosamine-6-phosphate [2]
  self-cleavage kobs at 2500 uM GlcN6P: < 1e-05 s⁻¹

## U45G A53G G62A
glucosamine-6-phosphate [1]
  self-cleavage kobs at 640 uM GlcN6P: < 1e-05 s⁻¹
glucosamine-6-phosphate [2]
  self-cleavage kobs at 2500 uM GlcN6P: < 1e-05 s⁻¹

## G41U U47G C50G
glucosamine-6-phosphate [1]
  self-cleavage kobs at 640 uM GlcN6P: < 1e-05 s⁻¹

## G40C U54C U56A
glucosamine-6-phosphate [1]
  self-cleavage kobs at 640 uM GlcN6P: 0.000313 ± 5.9e-05 s⁻¹
glucosamine-6-phosphate [2]
  self-cleavage kobs at 2500 uM GlcN6P: 0.000505 ± 0.00011 s⁻¹

## G38U U57A C71G
glucosamine-6-phosphate [1]
  self-cleavage kobs at 640 uM GlcN6P: < 1e-05 s⁻¹
glucosamine-6-phosphate [2]
  self-cleavage kobs at 2500 uM GlcN6P: < 1e-05 s⁻¹

## A36U U46C U49A C68G
glucosamine-6-phosphate [1]
  self-cleavage kobs at 640 uM GlcN6P: < 1e-05 s⁻¹

## G35C A39C G43C U56A
glucosamine-6-phosphate [1]
  self-cleavage kobs at 640 uM GlcN6P: < 1e-05 s⁻¹

## A36C C70G
glucosamine-6-phosphate [1]
  self-cleavage kobs at 640 uM GlcN6P: 0.000124 ± 2.1e-05 s⁻¹

## A36C G38A A53U C68G
glucosamine-6-phosphate [1]
  self-cleavage kobs at 640 uM GlcN6P: 9.97e-05 ± 4.4e-05 s⁻¹

## G41A G51C G63A C67A
glucosamine-6-phosphate [1]
  self-cleavage kobs at 640 uM GlcN6P: < 1e-05 s⁻¹

## G40C U47C C68G
glucosamine-6-phosphate [1]
  self-cleavage kobs at 640 uM GlcN6P: < 1e-05 s⁻¹

## U45G U56C
glucosamine-6-phosphate [1]
  self-cleavage kobs at 640 uM GlcN6P: 0.000204 ± 4.5e-05 s⁻¹
glucosamine-6-phosphate [2]
  self-cleavage kobs at 2500 uM GlcN6P: 0.000272 ± 7.1e-05 s⁻¹
glucosamine-6-phosphate [3]
  self-cleavage kobs at 10000 uM GlcN6P: 0.000987 ± 0.00015 s⁻¹

## U46A C50U U55C
glucosamine-6-phosphate [1]
  self-cleavage kobs at 640 uM GlcN6P: < 1e-05 s⁻¹

## G37U G51A G66C
glucosamine-6-phosphate [1]
  self-cleavage kobs at 640 uM GlcN6P: < 1e-05 s⁻¹

## G38U U56G C70A
glucosamine-6-phosphate [1]
  self-cleavage kobs at 640 uM GlcN6P: 0.000333 ± 0.00015 s⁻¹

## G44A C50U C67U
glucosamine-6-phosphate [1]
  self-cleavage kobs at 640 uM GlcN6P: < 1e-05 s⁻¹

## G41A G51C A64C
glucosamine-6-phosphate [1]
  self-cleavage kobs at 640 uM GlcN6P: < 1e-05 s⁻¹

## G40U U49A
glucosamine-6-phosphate [1]
  self-cleavage kobs at 640 uM GlcN6P: < 1e-05 s⁻¹
glucosamine-6-phosphate [2]
  self-cleavage kobs at 2500 uM GlcN6P: < 1e-05 s⁻¹
glucosamine-6-phosphate [3]
  self-cleavage kobs at 10000 uM GlcN6P: < 1e-05 s⁻¹

From the supplement of paper PMC7125110
